For one test, the target named is FcγRIIA (UniProt P12318).
A further test concerns the target FcγRIIIA (UniProt P08637).
UniProt P08637, sequence (P08637 17-254): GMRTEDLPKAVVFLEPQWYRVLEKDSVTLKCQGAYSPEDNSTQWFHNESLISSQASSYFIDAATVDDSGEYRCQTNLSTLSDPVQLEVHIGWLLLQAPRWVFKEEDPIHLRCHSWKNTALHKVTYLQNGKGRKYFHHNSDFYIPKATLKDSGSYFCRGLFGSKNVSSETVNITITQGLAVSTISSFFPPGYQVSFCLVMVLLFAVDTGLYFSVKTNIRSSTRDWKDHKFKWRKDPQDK

UniProt P12318, sequence (P12318 34-317): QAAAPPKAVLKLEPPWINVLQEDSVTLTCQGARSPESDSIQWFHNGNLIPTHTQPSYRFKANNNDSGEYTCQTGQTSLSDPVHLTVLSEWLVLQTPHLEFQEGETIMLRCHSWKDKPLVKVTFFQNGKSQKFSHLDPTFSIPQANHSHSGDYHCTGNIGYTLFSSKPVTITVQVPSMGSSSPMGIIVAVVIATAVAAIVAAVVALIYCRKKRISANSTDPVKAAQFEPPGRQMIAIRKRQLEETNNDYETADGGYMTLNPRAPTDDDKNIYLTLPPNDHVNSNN

With “IMM01, recombinant SIRPα-Fc fusion protein”, the antibody-dependent cellular phagocytosis (ADCP), EC50 with FcγRIIA and with FcγRIIIA was 139 pM each time.

The record behind these values is PMC9670587.
